# Results published in IntAct's records for PubMed 21441914.
# B1: Double-strand break repair protein rad32 (Schizosaccharomyces pombe (strain ATCC 38366 / 972)), Q09683 (parent)
# chain: MPNDPSDMNNELHNENTIRILISSDPHVGYGEKDPVRGNDSFVSFNEILEIARERDVDMILLGGDIFHDNKPSRKALYQALRSLRLNCLGDKPCELELLSDTSLTTGDTAVCNINYLDPNINVAIPVFSIHGNHDDPSGDGRYSALDILQVTGLVNYFGRVPENDNIVVSPILLQKGFTKLALYGISNVRDERLYHSFRENKVKFLRPDLYRDEWFNLLTVHQNHSAHTPTSYLPESFIQDFYDFVLWGHEHECLIDGSYNPTQKFTVVQPGSTIATSLSPGETAPKHCGILNITGKDFHLEKIRLRTVRPFIMKDIILSEVSSIPPMVENKKEVLTYLISKVEEAITEANAQWYEAQGTVPVVENEKPPLPLIRLRVDYTGGYQTENPQRFSNRFVGRVANATDVVQFYLKKKYTRSKRNDGLYTSAVEDIKINSLRVESLVNEYLKTNRLECLPEDSLGEAVVNFVEKDDRDAIKECVETQLNKQINLLVKKRVTEENLEQEISSIINDLPKISTTKRKDYEELPEEVSETSINIAEHTPVLKHTSSLLDHHSPLATSSSEHEMEATPSPALLKKTNKRRELPSSLTKKNTRTPQRSKEVKKVPARKLSQSTKKSDKNTQSTLLFYDPSSTTEAQYLDNEDDEILDD
# partner: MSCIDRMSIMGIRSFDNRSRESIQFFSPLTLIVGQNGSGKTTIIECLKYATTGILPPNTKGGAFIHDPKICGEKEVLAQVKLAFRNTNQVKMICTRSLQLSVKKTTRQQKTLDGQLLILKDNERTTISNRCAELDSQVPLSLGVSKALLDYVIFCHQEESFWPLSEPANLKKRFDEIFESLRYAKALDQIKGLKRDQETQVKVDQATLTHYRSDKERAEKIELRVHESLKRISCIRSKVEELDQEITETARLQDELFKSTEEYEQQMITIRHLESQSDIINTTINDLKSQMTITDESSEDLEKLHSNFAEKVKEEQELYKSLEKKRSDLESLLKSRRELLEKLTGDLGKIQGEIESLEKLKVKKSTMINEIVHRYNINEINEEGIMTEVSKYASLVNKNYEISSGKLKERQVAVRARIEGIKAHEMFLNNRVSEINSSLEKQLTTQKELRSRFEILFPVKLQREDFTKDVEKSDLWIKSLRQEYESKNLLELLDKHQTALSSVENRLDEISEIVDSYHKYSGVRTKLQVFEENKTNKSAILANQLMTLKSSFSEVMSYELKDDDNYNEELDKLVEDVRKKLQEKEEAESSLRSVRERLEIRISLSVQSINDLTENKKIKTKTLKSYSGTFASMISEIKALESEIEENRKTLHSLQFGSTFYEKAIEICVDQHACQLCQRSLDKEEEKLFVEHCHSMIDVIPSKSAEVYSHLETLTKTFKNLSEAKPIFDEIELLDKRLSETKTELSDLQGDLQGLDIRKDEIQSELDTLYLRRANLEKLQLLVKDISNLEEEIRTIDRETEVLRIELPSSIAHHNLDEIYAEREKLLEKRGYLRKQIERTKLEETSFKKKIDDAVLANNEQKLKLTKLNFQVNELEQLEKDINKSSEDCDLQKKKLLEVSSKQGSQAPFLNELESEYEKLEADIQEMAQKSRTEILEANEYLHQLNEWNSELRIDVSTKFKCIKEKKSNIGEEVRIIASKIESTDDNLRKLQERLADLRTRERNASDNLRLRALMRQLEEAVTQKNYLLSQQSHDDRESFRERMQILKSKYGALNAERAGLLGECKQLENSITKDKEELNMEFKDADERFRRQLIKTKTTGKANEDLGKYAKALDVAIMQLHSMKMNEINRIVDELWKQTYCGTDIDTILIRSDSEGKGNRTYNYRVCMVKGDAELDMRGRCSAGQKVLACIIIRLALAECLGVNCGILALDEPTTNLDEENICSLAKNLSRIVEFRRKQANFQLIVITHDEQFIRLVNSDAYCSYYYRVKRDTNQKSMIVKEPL
# Variants of: B1
# Conditions: with rad50_schpo rad50, Q9UTJ8
row,effect of a mutation on the interaction,Variant
1,disrupting interaction,C479R;V480R
2,disrupting interaction,C454R;L455R;C479R;V480R
3,disrupting interaction,C454R;L455R
